By pKd is commonly meant −log10 of the Kd, conventionally taken in molar units.

The record followed here is publication PMC6297355.

The target of assay [1] is 5-carboxyfluorescein (5-FAM) labeled LVEALY tracer. Briefly: fluorescence polarisation (Δmp read-out, fluorescent peptide tracer). As to conditions: 30 µM BAG3P209L; 30 µM BAG3WT; parent: est. 2; read off a plot. A general note: Polarisation of emitted light reports the rotation of a fluorescent probe.
The target in assay [2] is BAG3^P209L (recombinant) (human) (UniProt O95817). Description: ITC; NBD (100 μM) in the syringe titrated into 10 μM BAG3 in the cell; 25 mM HEPES, 5 mM MgCl2, 100 mM KCl, pH 7.5; 25 °C; one-site binding model. A general note: Isothermal titration calorimetry measures the heat released or taken up as one component is titrated into another.
In assay [3] the target is BAG3^WT (recombinant) (human) (UniProt O95817). The assay is described as above.

pKd: −log10 of the molar value.

BAG3^WT (recombinant), O95817 P209L, sequence (O95817 whole entry P209L): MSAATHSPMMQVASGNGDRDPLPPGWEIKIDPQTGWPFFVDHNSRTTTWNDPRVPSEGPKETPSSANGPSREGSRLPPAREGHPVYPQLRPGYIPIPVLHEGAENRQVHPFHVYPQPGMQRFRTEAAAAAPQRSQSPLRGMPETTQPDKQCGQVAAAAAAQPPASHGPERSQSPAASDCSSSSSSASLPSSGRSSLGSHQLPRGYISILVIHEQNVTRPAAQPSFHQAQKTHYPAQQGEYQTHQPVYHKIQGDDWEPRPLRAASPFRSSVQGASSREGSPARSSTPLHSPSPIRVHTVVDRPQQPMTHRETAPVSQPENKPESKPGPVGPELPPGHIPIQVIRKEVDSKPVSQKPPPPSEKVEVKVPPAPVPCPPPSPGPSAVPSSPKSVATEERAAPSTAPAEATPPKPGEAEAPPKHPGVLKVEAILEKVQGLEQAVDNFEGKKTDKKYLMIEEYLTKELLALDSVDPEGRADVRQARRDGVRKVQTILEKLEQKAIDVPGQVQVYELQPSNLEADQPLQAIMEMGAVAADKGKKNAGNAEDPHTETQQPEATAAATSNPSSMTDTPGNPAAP
BAG3^P209L (recombinant) (human), sequence (O95817 whole entry P209L): as above
BAG3^WT (recombinant) (human), sequence (O95817 whole entry): as the sequence (O95817 whole entry P209L) above, with L209P counted along it

BAG3^WT (recombinant), O95817 P209L: the response in assay [1] was 54 Δmp.

Consider “HSPA8^NBD (nucleotide-binding domain of HSPA8) (domain or fragment)”, for which the pKd in assay [2] and in assay [3] was 6.52 in each case.
